Measurements reported in patent US20200165330A1 (ORDER MADE MEDICAL RESEARCH, published 2020).

Assays:
human VEGF121 = target: T1, human VEGF121 (human, UniProt P15692 207-321); assay: ELISA, human VEGF121 coated at 20 ng/well, antibody serially diluted from 1 ug/ml, peroxidase anti-human Ig, absorbance 450 nm
T1 sequence: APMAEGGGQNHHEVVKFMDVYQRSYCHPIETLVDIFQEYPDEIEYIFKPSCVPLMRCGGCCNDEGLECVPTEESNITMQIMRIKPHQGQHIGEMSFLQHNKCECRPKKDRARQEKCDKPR
Protocol: (§1) Next, after 3 times of washing with 300 μL of 0.02% Tween 20-containing PBS (−) (hereafter, denoted as “PBS-T”), 300 μL of 3% skim milk-containing PBS (−) was dispensed to each well, followed by blocking at 37° C. for 1 hour. […] After washing similarly, TMB Single Solution was added for color development at room temperature. After the reaction was stopped with 1 N sulfuric acid, absorbance at 450 nm was measured using a plate reader (Molecular Devices).

[1] = target: T2, Human recombinant VEGF165 (human, UniProt P15692 181-395); assay: ELISA, human VEGF165 coated at 20 ng/well, antibody serially diluted from 1 ug/ml, peroxidase anti-human Ig, absorbance 450 nm
T2 construct: also called rhVEGF165; rhVEGF
Protocol: as §1

canine VEGFA (VEGF164) = target: T3, canine VEGFA (VEGF164) (canine, UniProt Q9MYV3-3 27-190); assay: ELISA, canine VEGFA coated at 20 ng/well, antibody serially diluted from 1 ug/ml, peroxidase anti-canine Ig, absorbance 450 nm
T3 construct: also called canine VEGF164
T3 sequence (looked up): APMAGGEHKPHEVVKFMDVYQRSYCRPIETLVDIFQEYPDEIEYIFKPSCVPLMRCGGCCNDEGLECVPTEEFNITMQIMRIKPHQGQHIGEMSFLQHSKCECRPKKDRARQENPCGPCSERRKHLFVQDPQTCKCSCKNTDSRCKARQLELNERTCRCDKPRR
Protocol: (§2) Next, after 3 times of washing with 300 μL of 0.02% Tween 20-containing PBS (−) (hereafter, denoted as “PBS-T”), 300 μL of 3% skim milk-containing PBS (−) was dispensed into each well, followed by blocking at 37° C. for 1 hour. […] After washing similarly, TMB Single Solution was added for color development at room temperature. After the reaction was stopped with 1 N sulfuric acid, absorbance at 450 nm was measured using a plate reader (Molecular Devices).

[2] = target: T2, Human recombinant VEGF165; assay: ELISA, human VEGF165 coated at 20 ng/well, antibody serially diluted from 1 ug/ml, peroxidase anti-canine Ig, absorbance 450 nm
Protocol: as §2

[3] = target: T2, Human recombinant VEGF165; assay: SPR, BIAcore-3000, rhVEGF immobilized on the chip, antibody injected
[4] = target: T2, Human recombinant VEGF165; assay: measured KD for rhVEGF set against a cited KD of Avastin; the excerpt does not show the method

B1: human IgG1 chimeric KLHb1501 antibody (antibody, V domains shown)
VH: DVQLQESGPGLVKPSQSLSLTCTVTGYSITSDYAWTWIRQFPGDKLEWMGYISYSGSTRYNPSLKSRISITRDTSKNQFFLHLNSVTTEDTATYFCARGGDYYGSRPWFAYWGQGTLVTVSA
VL: QAVVTQESALTTSPGETVTLTCRSSTGAVTISNYANWVQEKPDHLFTGLIGGTNNRAPDVPARFSGSLIGDKAALTITGAQTEDEAIYFCALWYSNHLVFGEGTKLTVL
notes: also called KLHb1501HC; KLHb1501HC antibody
Human VEGF121
  EC50 (read off the curve): ~0.04 µg/mL
[1]
  EC50 (read off the curve): ~0.04 µg/mL

B2: canine-IgGB chimeric KLHb1501 antibody (antibody, V domains shown)
VH: B1 VH
VL: QAVVTQESALTTSPGETVTLTCRSSTGAVTISNYANWVQEKPDHLFTGLIGGTNNRAPDVPARFSGSLIGDKAALTITGAQTEDEAIYFCALWYSNHLVFGEGTKLTVLQ
notes: also called KLHb1501CC; KLHb1501CC antibody
Canine VEGFA (VEGF164)
  EC50 (read off the curve): ~0.03 µg/mL
[2]
  EC50 (read off the curve): ~0.03 µg/mL

B3: KLHb1501 (antibody, V domains shown)
VH: B1 VH
VL: B1 VL
notes: also called KLHb1501 antibody; KLH1501
[3]
  Kd: 0.6 pM
[4]
  ratio of dissociation constant to that of Avastin (bevacizumab): ≤ 0.001 ratio (KD of the antibody / KD of Avastin, cited as 4.9 nmol/L)
